# Experimental data as given in the supplement of paper PMC10567573.
# B1: MFF (parent)
# chain: MAEISRIQYEMEYTEGISQRMRVP
# Variants of: B1
# Test: protein stability index of a GFP-peptide fusion (GPS, HEK-293T) (PSI 1-6); higher = more stable
# Conditions: c terminus: a fixed tail appended
# 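Also: lentivirally expressed fusions sorted by FACS into six bins by GFP to DsRed ratio, PSI derived from sequencing read proportions per bin multiplied by bin number.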
row,Variant,protein stability index
1,MAEISRIQYEMEYTSGISQRMRVP,1.94
2,MAEISRIQYEMEYTDGISQRMRVP,2.64
3,MAEISRIQYEMEYTCGISQRMRVP,1.46
4,MAEISRIQYEMEYTRGISQRMRVP,2.45
5,MAEISRIQYEMEYTWGISQRMRVP,1.77
6,MAEISRIQYEMEYTLGISQRMRVP,1.66
7,MAEISRIQYEMEYTYGISQRMRVP,2.03
8,MAEISRIQYEMEYTTGISQRMRVP,2.56
9,MAEISRIQYEMEYTKGISQRMRVP,2.43
10,MAEISRIQYEMEYTHGISQRMRVP,2.21
11,MAEISRIQYEMEYTNGISQRMRVP,3.14
12,MAEISRIQYEMEYTAGISQRMRVP,2.1
13,MAEISRIQYEMEYTFGISQRMRVP,2.17
14,MAEISRIQYEMEYTVGISQRMRVP,1.62
15,MAEISRIQYEMEYTIGISQRMRVP,2.11
16,MAEISRIQYEMEYTPGISQRMRVP,1.96
17,MAEISRIQYEMEYTQGISQRMRVP,2.42
18,MAEISRIQYEMEYTMGISQRMRVP,1.75
19,MAEISRIQYEMEYTGGISQRMRVP,2.15
20,MAEISRIQYEMEYTEGISYRMRVP,1.81
21,MAEISRIQYEMEYTEGISVRMRVP,1.62
22,MAEISRIQYEMEYTEGISFRMRVP,1.56
23,MAEISRIQYEMEYTEGISKRMRVP,2.44
24,MAEISRIQYEMEYTEGISIRMRVP,1.89

row,Variant,protein stability index
1,MAEISRIQYEMEYTEGISTRMRVP,2.66
2,MAEISRIQYEMEYTEGISLRMRVP,1.41
3,MAEISRIQYEMEYTEGISHRMRVP,2.34
4,MAEISRIQYEMEYTEGISDRMRVP,3.16
5,MAEISRIQYEMEYTEGISWRMRVP,2.16
6,MAEISRIQYEMEYTEGISCRMRVP,2.41
7,MAEISRIQYEMEYTEGISARMRVP,2.47
8,MAEISRIQYEMEYTEGISMRMRVP,2.65
9,MAEISRIQYEMEYTEGISERMRVP,2.54
10,MAEISRIQYEMEYTEGISRRMRVP,2.59
11,MAEISRIQYEMEYTEGISSRMRVP,2.56
12,MAEISRIQYEMEYTEGISPRMRVP,2.77
13,MAEISRIQYEMEYTEGISNRMRVP,3.06
14,MAEISRIQYEMEYTEGISGRMRVP,2.81
15,MAEISRIQYEMEYTEGISQRMRNP,2.61
16,MAEISRIQYEMEYTEGISQRMRCP,2.87
17,MAEISRIQYEMEYTEGISQRMRRP,2.73
18,MAEISRIQYEMEYTEGISQRMRQP,2.99
19,MAEISRIQYEMEYTEGISQRMREP,2.73
20,MAEISRIQYEMEYTEGISQRMRIP,2.07
21,MAEISRIQYEMEYTEGISQRMRSP,2.51
22,MAEISRIQYEMEYTEGISQRMRLP,2.46
23,MAEISRIQYEMEYTEGISQRMRYP,2.41
24,MAEISRIQYEMEYTEGISQRMRPP,2.54

row,Variant,protein stability index
1,MAEISRIQYEMEYTEGISQRMRHP,2.54
2,MAEISRIQYEMEYTEGISQRMRGP,2.72
3,MAEISRIQYEMEYTEGISQRMRFP,1.99
4,MAEISRIQYEMEYTEGISQRMRMP,2.63
5,MAEISRIQYEMEYTEGISQRMRAP,2.31
6,MAEISRIQYEMEYTEGISQRMRTP,2.56
7,MAEISRIQYEMEYTEGISQRMRDP,3.23
8,MAEISRIQYEMEYTEGISQRMRWP,1.7
9,MAEISRIQYEMEYTEGISQRMRKP,3.43
10,MAEISRIQYEMEYTEGILQRMRVP,1.82
11,MAEISRIQYEMEYTEGINQRMRVP,2.98
12,MAEISRIQYEMEYTEGIGQRMRVP,2.51
13,MAEISRIQYEMEYTEGIQQRMRVP,2.62
14,MAEISRIQYEMEYTEGIHQRMRVP,2.13
15,MAEISRIQYEMEYTEGITQRMRVP,2.6
16,MAEISRIQYEMEYTEGICQRMRVP,2.41
17,MAEISRIQYEMEYTEGIDQRMRVP,2.97
18,MAEISRIQYEMEYTEGIIQRMRVP,1.66
19,MAEISRIQYEMEYTEGIKQRMRVP,2.27
20,MAEISRIQYEMEYTEGIEQRMRVP,3.04
21,MAEISRIQYEMEYTEGIWQRMRVP,1.89
22,MAEISRIQYEMEYTEGIFQRMRVP,1.97
23,MAEISRIQYEMEYTEGIVQRMRVP,1.74
24,MAEISRIQYEMEYTEGIPQRMRVP,2.65

row,Variant,protein stability index
1,MAEISRIQYEMEYTEGIAQRMRVP,1.56
2,MAEISRIQYEMEYTEGIYQRMRVP,1.92
3,MAEISRIQYEMEYTEGIMQRMRVP,1.94
4,MAEISRIQYEMEYTEGIRQRMRVP,2.27
5,MAEISRIQYEMEYTEGISQWMRVP,1.67
6,MAEISRIQYEMEYTEGISQIMRVP,2.05
7,MAEISRIQYEMEYTEGISQGMRVP,2.14
8,MAEISRIQYEMEYTEGISQCMRVP,2.41
9,MAEISRIQYEMEYTEGISQYMRVP,1.58
10,MAEISRIQYEMEYTEGISQNMRVP,2.46
11,MAEISRIQYEMEYTEGISQHMRVP,2.22
12,MAEISRIQYEMEYTEGISQEMRVP,3.1
13,MAEISRIQYEMEYTEGISQSMRVP,2.27
14,MAEISRIQYEMEYTEGISQLMRVP,2.1
15,MAEISRIQYEMEYTEGISQQMRVP,2.3
16,MAEISRIQYEMEYTEGISQAMRVP,2.01
17,MAEISRIQYEMEYTEGISQKMRVP,2.72
18,MAEISRIQYEMEYTEGISQTMRVP,2.66
19,MAEISRIQYEMEYTEGISQVMRVP,2.17
20,MAEISRIQYEMEYTEGISQPMRVP,2.73
21,MAEISRIQYEMEYTEGISQDMRVP,3.56
22,MAEISRIQYEMEYTEGISQMMRVP,2.13
